From the supplement of paper PMC9876800

Tested on: peptide library, one residue held at a place counted from the S/T acceptor
Assay: relative phosphorylation of the sub-library (ratio to the mean residue at this position); higher = residue favoured
In short: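 Relative sub-library phosphorylation, a ratio to the mean residue at that position, was obtained by phosphorimaging and densitometry of spots on streptavidin membranes. Before capture, purified recombinant kinases were incubated for 90 min under kinase-specific conditions with 50 μM biotinylated degenerate peptide sub-libraries and 50 μM ATP spiked with γ-32P-ATP. Each sub-library fixed one residue at one position around a central Ser/Thr.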

CDK12, construct: aa714-1063, human, sequence (Q9NYV4 714-1063, looked up): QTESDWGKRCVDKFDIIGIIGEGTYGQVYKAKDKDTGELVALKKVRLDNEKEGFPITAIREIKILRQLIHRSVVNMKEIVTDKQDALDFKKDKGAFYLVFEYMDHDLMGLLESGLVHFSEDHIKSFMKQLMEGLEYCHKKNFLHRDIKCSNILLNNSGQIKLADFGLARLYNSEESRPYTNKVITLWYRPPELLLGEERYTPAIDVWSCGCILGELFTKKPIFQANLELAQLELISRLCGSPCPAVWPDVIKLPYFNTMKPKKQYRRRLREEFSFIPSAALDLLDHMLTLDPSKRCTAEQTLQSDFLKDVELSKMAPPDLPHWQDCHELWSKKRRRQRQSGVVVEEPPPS
CDK4, construct: Full length, human, sequence (P11802 whole entry, looked up): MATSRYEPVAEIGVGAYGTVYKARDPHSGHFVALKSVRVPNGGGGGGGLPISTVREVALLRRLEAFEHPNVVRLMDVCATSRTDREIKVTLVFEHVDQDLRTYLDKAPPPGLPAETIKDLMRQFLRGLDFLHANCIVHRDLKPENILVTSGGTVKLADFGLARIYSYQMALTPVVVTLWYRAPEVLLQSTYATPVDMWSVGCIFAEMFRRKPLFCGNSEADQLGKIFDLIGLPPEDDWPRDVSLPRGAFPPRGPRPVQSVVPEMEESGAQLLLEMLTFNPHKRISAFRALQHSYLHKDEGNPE

CDK4, construct: Full length, human (from UniProt P11802)
relative phosphorylation
Details | at +1 | at +2 | at +3 | at +4 | at -1 | at -2 | at -3 | at -4 | at -5
A fixed | 0.244 | 0.682 | 0.688 | 0.766 | 0.896 | 0.85 | 1.04 | 1 | 1.02
D fixed | 0.173 | 0.416 | 0.335 | 0.58 | 0.421 | 0.228 | 0.387 | 0.667 | 0.799
E fixed | 0.133 | 0.337 | 0.246 | 0.526 | 0.504 | 0.298 | 0.59 | 0.844 | 0.796
F fixed | 0.237 | 0.736 | 0.778 | 0.851 | 0.96 | 1.06 | 0.741 | 0.852 | 0.797
G fixed | 0.746 | 0.88 | 0.82 | 1.11 | 1.03 | 0.596 | 1.4 | 1.18 | 1.28
H fixed | 0.266 | 1.32 | 1.05 | 1.38 | 1.02 | 1.04 | 1.13 | 1.09 | 1.16
I fixed | 0.278 | 1.16 | 0.428 | 0.855 | 0.531 | 1.01 | 0.915 | 0.838 | 0.917
K fixed | 0.29 | 1.55 | 1.86 | 1.2 | 1.29 | 0.798 | 1.21 | 1.23 | 1.4
L fixed | 0.364 | 0.967 | 0.412 | 0.587 | 1.28 | 1.41 | 0.874 | 0.808 | 0.752
M fixed | 0.267 | 1.03 | 0.566 | 0.909 | 1.46 | 1.28 | 0.796 | 0.827 | 0.813
N fixed | 0.258 | 1.27 | 0.739 | 0.976 | 0.731 | 0.948 | 0.856 | 1.16 | 1.08
P fixed | 12.4 | 0.481 | 0.92 | 0.848 | 0.94 | 2.52 | 1.14 | 1.08 | 1.14
Q fixed | 0.275 | 0.789 | 0.652 | 0.801 | 1.27 | 0.76 | 0.704 | 0.832 | 0.822
R fixed | 0.324 | 2.59 | 4.48 | 2.2 | 1.9 | 1.39 | 2.5 | 1.52 | 1.6
V fixed | 0.302 | 1.01 | 0.417 | 0.636 | 0.624 | 0.891 | 0.889 | 0.658 | 0.68
W fixed | 0.239 | 0.624 | 1.54 | 1.42 | 0.996 | 0.88 | 0.87 | 1.28 | 0.782
Y fixed | 0.222 | 1.16 | 1.07 | 1.36 | 1.13 | 1.05 | 0.957 | 1.13 | 1.15
pThr fixed | 0.323 | 0.406 | 0.361 | 0.422 | 0.237 | 0.382 | 0.592 | 0.644 | 0.77
pTyr fixed | 0.482 | 0.391 | 0.503 | 0.432 | 0.357 | 0.356 | 0.592 | 0.544 | 0.934

CDK12, construct: aa714-1063, human (from UniProt Q9NYV4)
relative phosphorylation
Details | at +1 | at +2 | at +3 | at +4 | at -1 | at -2 | at -3 | at -4 | at -5
A fixed | 0.323 | 0.895 | 0.799 | 0.848 | 1.09 | 1.19 | 1.04 | 1.11 | 1.13
D fixed | 0.154 | 0.546 | 0.392 | 0.912 | 0.38 | 0.47 | 0.629 | 0.861 | 0.879
E fixed | 0.155 | 0.5 | 0.446 | 0.923 | 0.438 | 0.456 | 0.707 | 0.9 | 0.735
F fixed | 0.341 | 0.984 | 0.553 | 0.891 | 0.844 | 0.667 | 0.778 | 1.07 | 1.21
G fixed | 0.715 | 1.28 | 0.854 | 1.43 | 1.58 | 1.7 | 2.58 | 1.27 | 1.09
H fixed | 0.261 | 1.21 | 1.79 | 1.44 | 0.876 | 0.811 | 0.897 | 1.04 | 1.01
I fixed | 0.309 | 0.911 | 0.929 | 0.828 | 0.364 | 0.973 | 0.971 | 0.891 | 0.868
K fixed | 0.27 | 1.34 | 0.977 | 0.804 | 1.01 | 0.659 | 0.63 | 0.832 | 0.847
L fixed | 0.36 | 0.853 | 0.545 | 0.765 | 0.834 | 0.863 | 0.754 | 0.946 | 0.939
M fixed | 0.357 | 1.16 | 0.523 | 0.832 | 1.65 | 1.28 | 0.819 | 1.04 | 0.924
N fixed | 0.227 | 0.992 | 0.721 | 0.973 | 0.801 | 0.713 | 0.686 | 0.893 | 0.82
P fixed | 12.1 | 0.747 | 1.26 | 0.992 | 1.08 | 1.84 | 1.33 | 1.06 | 1.28
Q fixed | 0.243 | 0.828 | 0.709 | 0.889 | 0.982 | 0.738 | 0.637 | 0.763 | 0.883
R fixed | 0.281 | 1.77 | 3.97 | 0.962 | 2.34 | 1.58 | 1.75 | 1.02 | 1.03
V fixed | 0.319 | 0.846 | 0.71 | 0.73 | 0.467 | 0.906 | 0.762 | 0.784 | 0.899
W fixed | 0.283 | 0.933 | 0.881 | 1.58 | 1.1 | 1.2 | 0.927 | 1.35 | 1.19
Y fixed | 0.274 | 1.2 | 0.934 | 1.21 | 1.17 | 0.956 | 1.1 | 1.19 | 1.27
pThr fixed | 0.363 | 0.528 | 0.566 | 0.999 | 0.336 | 0.48 | 0.83 | 0.846 | 0.975
pTyr fixed | 0.378 | 0.504 | 0.859 | 1.29 | 1.16 | 0.719 | 0.908 | 0.998 | 0.975
